The record followed here is patent publication US20190338002A1 (Pieris, published 2019).

For assay [1], the target named is T1, rat alpha CGRP (SEQ ID NO: 82) (rat).
T1 peptide: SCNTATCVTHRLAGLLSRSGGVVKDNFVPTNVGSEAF
The experiment in a line: cell-based or functional assay.

For assay [2], the target named is T2, human beta CGRP (SEQ ID NO: 81) (human, not fully specified).
T2 peptide: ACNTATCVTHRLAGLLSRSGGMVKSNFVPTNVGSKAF
The experiment in a line: cell-based or functional assay.

Assay [3] has as its target T3, human alpha CGRP (SEQ ID NO: 80) (human, not fully specified).
T3 peptide: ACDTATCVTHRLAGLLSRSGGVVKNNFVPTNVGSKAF
The experiment in a line: cell-based or functional assay.

Assay [4] concerns the target T4, rat beta CGRP (SEQ ID NO: 83) (rat, not fully specified).
T4 peptide: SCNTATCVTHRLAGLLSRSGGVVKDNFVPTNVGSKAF
The experiment in a line: cell-based or functional assay.

The target in assay [5] is T1, rat alpha CGRP (SEQ ID NO: 82). Nature of the assay: SPR, 37 C, mutein captured, CGRP analyte. On the procedure: (§1) The Biotin CAPture Kit (GE Healthcare) was used to immobilize biotinylated lipocalin muteins to a chip surface. Muteins were biotinylated using standard NHS chemistry. Undiluted Biotin CAPture Reagent (streptavidin conjugated with ss-DNA oligo) was captured on a Sensor Chip CAP with the pre-immobilized complementary ss-DNA oligo. Thereafter, biotinylated muteins at 1 μg/mL were applied for 300 s at a flow rate of 5 μL/min.
(§2) CGRP species were applied in three concentrations of 30 nM, 3 nM and 0.3 nM at a flow rate of 30 μL/min or in a single concentration of 25 nM per cycle as shown in FIG. 2. The dilutions were injected with association times of 180 s and dissociation times of 5400 sec to obtain ka and kd information. Regeneration of the chip surface was achieved by injecting 6 M Guanidinium-HCl+0.25 M NaOH (120 s) with a flow rate of 10 μL/min. Injection of regeneration solutions was followed by an extra wash step with HBS-EP+(1×; BR-1006-69; GE Healthcare) running buffer and a stabilization period of 120 s.
(§3) The data were double-referenced by subtraction of the corresponding signals measured for the control channel (loaded with Biotin CAPture reagent only) and by subtraction of buffer injections from the binding responses. Association rate constant ka and dissociation rate constant kd for the binding reaction were determined using Biacore T200 Evaluation Software V2.0 for data processing and kinetic fitting. The data were globally fit with 1:1 binding model.

For assay [6], the target named is T2, human beta CGRP (SEQ ID NO: 81). Nature of the assay: SPR, 37 C, mutein captured, CGRP analyte. On the procedure: as §1, §2, §3
(SPR reads the build-up and loss of mass on a sensor chip optically.)

Assay [7] concerns the target T3, human alpha CGRP (SEQ ID NO: 80). Nature of the assay: SPR, 37 C, mutein captured, CGRP analyte. On the procedure: as §1, §2, §3
Assay [8] has as its target T4, rat beta CGRP (SEQ ID NO: 83). The experiment in a line: SPR, 37 C, mutein captured, CGRP analyte. On the procedure:
as §1, §2, §3

For assay [9], the target named is T2, human beta CGRP (SEQ ID NO: 81). The experiment in a line: SPR as in Example 5. On the procedure: as §1, §2
Assay [10] deals with T3, human alpha CGRP (SEQ ID NO: 80). The experiment in a line: SPR as in Example 5. How it is done: as §1, §2
Assay [11] concerns the target T2, human beta CGRP (SEQ ID NO: 81). The experiment in a line: cell-based or functional assay.
Assay [12] deals with T3, human alpha CGRP (SEQ ID NO: 80). Nature of the assay: cell-based or functional assay.

B1: lipocalin mutein SEQ ID NO: 25 (designed binder)
chain: QDSTSDLIPAPPLSKVPLQQNFQDNQFHGKWYVVGWAGNTLLREDKDPIKMQAKIYELKEDRSYNVTWVYFADKKCNYHIETFVPGSQPGEFTLGTIKSYPGETPILVRVVSTNYNQHAMVFFKGVNQNREIFEIILYGRTKELTNELKENFIRFSKSLGLPENHIVFPVPIDQCIDGSAWSHPQFEK
notes: biotinylated by NHS chemistry for capture in SPR
Usually Kd stands for the free concentration of one partner at which half of the binding sites on the other are occupied at equilibrium, for simple one-to-one binding. Broadly, the koff is the first-order rate constant of dissociation. Read a low koff as a long-lived complex. What is called kon is the rate constant with which the complex forms. Read a high kon as fast association. With B1, the “IC50, CGRP-induced cAMP production, L6 cells” value (“IC50 … L6 cells” below) stood at 0.06 nM in [1] and 0.16 nM in [4]. The “IC50, CGRP-induced cAMP production, SK-N-MC cells” value in assay [2] was 0.19 nM; in [3], 0.15 nM. In addition, the equilibrium dissociation constant (Kd) is 0.016 nM in assay [5], 0.005 nM in assay [6], 0.006 nM in assay [7] and 0.008 nM in assay [8]. The off-rate (koff) in assay [5] is 2.12e-05 s⁻¹; in assay [6] it was 1.01e-05 s⁻¹; in assay [7] it was 1.65e-05 s⁻¹; in assay [8], 1.33e-05 s⁻¹. Moreover, the kon in assay [5] turned out to be 1.3e+06 M⁻¹ s⁻¹; in [6], 2.02e+06 M⁻¹ s⁻¹; in assay [7] it was 2.68e+06 M⁻¹ s⁻¹; in [8] it was 1.64e+06 M⁻¹ s⁻¹.

B2: lipocalin mutein SEQ ID NO: 27 (designed binder)
chain: QDSTSDLIPAPPLSKVPLQQNFQDNQFHGKWYVVGWAGNTLLREDKDPIKMQAMIYELKEDKSYNVTWVYFADKKCNYHIETFVPGSQPGEFTLGTIKSYPGETPILVRVVSTNYNQHAMVFFKGVNQNREIFEIVLYGRTKELTNELKENFIRFSKSLGLPENHIVFPVPIDQCIDGSAWSHPQFEK
notes: as for B1
Regarding B2, the “IC50, CGRP-induced cAMP production, SK-N-MC cells” value was determined as 0.12 nM in [2] and 0.1 nM in assay [3]. Moreover, the Kd in [9] was found to be 0.007 nM; in assay [10], 0.038 nM; in assay [5] it was 0.038 nM; in assay [6] it was 0.011 nM; in [7], 0.018 nM; in assay [8], 0.018 nM. In addition, the “cAMP assay IC50, SK-N-MC cells” value was 0.12 nM in assay [11] and 0.1 nM in assay [12]. Besides, the off-rate constant (koff) was 3.1e-05 s⁻¹ in [5], 2.26e-05 s⁻¹ in assay [6], 2.59e-05 s⁻¹ in assay [7] and 2.64e-05 s⁻¹ in assay [8]. Besides, the kon was 807000 M⁻¹ s⁻¹ in assay [5], 2.04e+06 M⁻¹ s⁻¹ in assay [6], 1.43e+06 M⁻¹ s⁻¹ in assay [7] and 1.5e+06 M⁻¹ s⁻¹ in [8].

B3: lipocalin mutein SEQ ID NO: 24 (designed binder)
chain: QDSTSDLIPAPPLSKVPLQQNFQDNQFHGKWYVVGWAGNTLLREDKDPIKMQAKIYELKEDRSYNVTWVYFAEKKCNYHIETFVPGSQPGEFTLGTIKSYPGETPILVRVVSTNYNQHAMVFFKGVNQNREIFEIILYGRTKELTNELKENFIRFSKSLGLPENHIVFPVPIDQCIDGSAWSHPQFEK
notes: as for B1
As to B3, the “IC50 … L6 cells” value in assay [1] came out at 0.07 nM; in [4] it was 0.16 nM. Besides, the “IC50, CGRP-induced cAMP production, SK-N-MC cells” value in [2] was found to be 0.19 nM; in assay [3], 0.12 nM. The Kd in assay [5] was 0.015 nM; in assay [6] it was 0.004 nM; in assay [7], 0.009 nM; in assay [8] it was 0.007 nM. The koff in [5] was found to be 2.08e-05 s⁻¹; in assay [6], 9.01e-06 s⁻¹; in assay [7] it was 1.4e-05 s⁻¹; in [8], 1.22e-05 s⁻¹. Also, the kon in assay [5] was determined as 1.43e+06 M⁻¹ s⁻¹; in [6], 2.52e+06 M⁻¹ s⁻¹; in assay [7], 1.6e+06 M⁻¹ s⁻¹; in assay [8] it was 1.69e+06 M⁻¹ s⁻¹.

B4: lipocalin mutein SEQ ID NO: 26 (designed binder)
chain: QDSTSDLIPAPPLSKVPLQQNFQDNQFHGKWYVVGWAGNTLLREDKDPIKMQAKIYELKEDRSYNVTWVYFADKKCRYHIETFVPGSQPGEFTLGTIKSHPGETPILVRVVSTNYNQHAMVFFKGVNQNREIFEIILYGRTKELTNELKENFIRFSKSLGLPENHIVFPVPIDQCIDGSAWSHPQFEK
notes: as for B1
Turning to B4, the “IC50 … L6 cells” value in assay [1] was determined as 0.05 nM; in [4] it was 0.16 nM. In addition, the entries for the “IC50, CGRP-induced cAMP production, SK-N-MC cells” value in assay [2] and in assay [3] were 0.26 nM and 0.16 nM, respectively. Also, the dissociation constant Kd in assay [5] stood at 0.015 nM; in [6] it was 0.003 nM; in assay [7], 0.013 nM; in assay [8] it was 0.006 nM. Moreover, the off-rate (koff) in [5] was determined as 2.01e-05 s⁻¹; in [6], 7.6e-06 s⁻¹; in assay [7], 1.99e-05 s⁻¹; in assay [8], 9.98e-06 s⁻¹. In addition, the kon in [5] is 1.31e+06 M⁻¹ s⁻¹; in assay [6], 2.44e+06 M⁻¹ s⁻¹; in assay [7], 1.5e+06 M⁻¹ s⁻¹; in assay [8] it was 1.56e+06 M⁻¹ s⁻¹.

B5: lipocalin mutein SEQ ID NO: 23 (designed binder)
chain: QDSTSDLIPAPPLSKVPLQQNFQDNQFHGKWYVVGWAGNTLLREDKDPIKMQAKIYELKEDRSYNVTWVYFADKKCNYHIETFVPGSQPGEFTLGLIKSYPGETPILVRVVSTNYNQHAMVFFKGVNQNREIFEIILYGRTKELTNELKENFIRFSKSLGLPENHIVFPVPIDQCIDGSAWSHPQFEK
notes: as for B1
Turning to B5, the “IC50 … L6 cells” value is 0.07 nM in assay [1] and 0.17 nM in assay [4]. For the same molecule, the “IC50, CGRP-induced cAMP production, SK-N-MC cells” value in [2] is 0.2 nM; in assay [3], 0.18 nM. Also, the Kd worked out at 0.009 nM in assay [5], 0.001 nM in assay [6], 0.011 nM in assay [7] and 0.008 nM in assay [8]. Moreover, the off-rate constant (koff) in assay [5] came out at 1.3e-05 s⁻¹; in assay [6] it was 4.11e-06 s⁻¹; in [7], 1.84e-05 s⁻¹; in assay [8], 1.34e-05 s⁻¹. Also, the kon in assay [5] is 1.39e+06 M⁻¹ s⁻¹; in assay [6], 2.84e+06 M⁻¹ s⁻¹; in assay [7] it was 1.64e+06 M⁻¹ s⁻¹; in assay [8], 1.74e+06 M⁻¹ s⁻¹.

B6: lipocalin mutein SEQ ID NO: 19 (designed binder)
chain: QDSTSDLIPAPPLSKVPLQQNFQDNQFHGKWYVVGRAGNDTLREDKDPEKMEATIYELKEDKSYNVTDVGLVQKKCMYVIHTFVPGSQPGEFTLGNIKSYPGVTSALVRVVSTNYNQHAMVFVKLVKQSRELFEITLYGRTKELTSELKENFIRFSKSLGLPENHIVFPVPIDQCIDGSAWSHPQFEK
notes: as for B1
On to B6, for which the “IC50 … L6 cells” value in [1] was 0.07 nM; in [4], 0.17 nM. For the same molecule, the “IC50, CGRP-induced cAMP production, SK-N-MC cells” value in assay [2] turned out to be 0.21 nM; in [3] it was 0.14 nM. The Kd in assay [5] is 0.024 nM; in assay [6], 0.001 nM; in assay [7] it was 0.005 nM; in assay [8], 0.006 nM. Also, the koff was found to be 3.02e-05 s⁻¹ in assay [5], 6.67e-06 s⁻¹ in assay [6], 1.07e-05 s⁻¹ in assay [7] and 1.21e-05 s⁻¹ in assay [8]. Further, the kon in [5] was 1.25e+06 M⁻¹ s⁻¹; in assay [6], 4.56e+06 M⁻¹ s⁻¹; in assay [7], 2.26e+06 M⁻¹ s⁻¹; in [8] it was 2.01e+06 M⁻¹ s⁻¹.

B7: lipocalin mutein SEQ ID NO: 18 (designed binder)
chain: QDSTSDLIPAPPLSKVPLQQNFQDNQFHGKWYVVGRAANDVLRDDNDPEKMEATIYELKEDKSYNVTDVGFVQKKCMYVVHTFVPGSQPGEFTLGNIKSYPGVTSALVRVVSTNYNQHAMVFFKLVKQNRELFEVTLYGRTKELTSELKENFIRFSKSLGLPENHIVFPVPIDQCIDGSAWSHPQFEK
As to B7, the “IC50 … L6 cells” value in assay [1] was found to be 0.06 nM; in assay [4], 0.14 nM. The figures for the “IC50, CGRP-induced cAMP production, SK-N-MC cells” value in [2] and in [3] were 0.29 nM and 0.19 nM, respectively.
